# Measured values reported in the supplement of paper PMC7877785.
# ± gives the uncertainty stated by the source.
# Test: self-splicing fitness, log relative to wild type (ln ratio); higher = more splicing; Tetrahymena group I intron in knt gene, E. coli kanamycin selection, DiMSum; sequences stand for … in CUCUCU…GGAGGGAAAAGUUAUCAGGCAUGCACCUGGUAGCUAGUCUUUAAACCAAUAGAUUGCAUCGGUUUAAAAGGCAAGACCGUCAAAUUGCGGGAAAGGGGUCAACAGCCGUUCAGUACCAAGUCUCAGGGGAAACUUUGAGAUGGCCUUGCAAAGGGUAUGGUAAUAAGCUGACGGACAUGGUCCUAACCACGCAGCCAAGUCCUAAGUCAACAGAUCUUCUGUUGAUAUGGAUGCAGUUCACAGACUAAAUGUCGGUCGGGGAAGAUGUAUUCUUCUCAUAAGAUAUAGUCGGACCUCUCCUUAAUGGGAGCUAGCGGAUGAAGUGAUGCAACACUGGAGCCGCUGGGAACUAAUUUGUAUGCGAAAGUAUAUUGAUUAGUUUUGGAGUACUCGUGGUCG
# Outline: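 A randomised library covering all eight P1ex-region intron nucleotides was built with the intron in the knt kanamycin-resistance gene on pET-22b(+) and held in E. coli BL21(DE3). Cells were grown overnight at 37°C or 30°C on LB agar, with or without 25 μg/mL kanamycin, plus 100 μg/mL carbenicillin, 50 μM IPTG and 0.2% rhamnose, and pooled colonies were amplicon-sequenced on an Illumina HiSeq 2500. DiMSum fitness is the error-weighted combination of wild-type-normalised replicate fold changes, kanamycin versus none.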
Sequence,self-splicing fitness (ln) (30 °C),self-splicing fitness (ln) (37 °C)
AACAAGCAAUAUUACGACUU,-0.0432 ± 0.046,0.207 ± 0.064
UAGGAGCAAUAUUACGAUUC,-2.08 ± 0.37,
GCCUAGCAAUAUUACGCUCA,-1.68 ± 0.16,-0.0373 ± 0.17
CAAAAGCAAUAUUACGGAAC,-2.55 ± 0.15,-2.87 ± 0.27
AUGUAGCAAUAUUACGACAA,-0.201 ± 0.091,0.171 ± 0.11
UGGUAGCAAUAUUACGAGUC,,-2.29 ± 0.32
GGUUAGCAAUAUUACGAAAC,,-1.68 ± 0.41
UGCAAGCAAUAUUACGUAGA,-1.35 ± 0.072,-0.944 ± 0.1
UGAGAGCAAUAUUACGGGGC,-2.38 ± 0.39,-2.17 ± 0.46
AUAUAGCAAUAUUACGUCUC,-3.22 ± 0.36,-1.51 ± 0.28
AAGGAGCAAUAUUACGCUUU,-3.83 ± 0.32,-2.93 ± 0.38
GGGAAGCAAUAUUACGGACG,-0.846 ± 0.11,-0.443 ± 0.13
CCGAAGCAAUAUUACGUACA,-3.19 ± 0.43,-1.75 ± 0.34
AAUCAGCAAUAUUACGCGGC,-1.53 ± 0.26,0.179 ± 0.16
GAACAGCAAUAUUACGAGUG,-1.78 ± 0.081,-1.31 ± 0.1
GUGAAGCAAUAUUACGCAGA,-3.85 ± 0.25,-2.39 ± 0.25
UCGAAGCAAUAUUACGUCUG,-0.0903 ± 0.069,-0.194 ± 0.077
CUCAAGCAAUAUUACGCUAG,-4.26 ± 0.32,-2.35 ± 0.14
AACGAGCAAUAUUACGGAGU,,-1.74 ± 0.14
CCCUAGCAAUAUUACGAAAG,-3.5 ± 0.26,
CUACAGCAAUAUUACGACUG,-1.86 ± 0.087,-0.44 ± 0.1
CAUAAGCAAUAUUACGCACG,-1.64 ± 0.1,-0.299 ± 0.13
CACAAGCAAUAUUACGAUUA,-2.43 ± 0.13,-0.984 ± 0.12
UAGUAGCAAUAUUACGCUGG,-1.13 ± 0.099,-1.34 ± 0.15
AUAGAGCAAUAUUACGCUUU,-1.68 ± 0.13,-1.58 ± 0.15

Sequence,self-splicing fitness (ln) (30 °C),self-splicing fitness (ln) (37 °C)
ACAUAGCAAUAUUACGACCU,-0.446 ± 0.1,0.527 ± 0.13
GUGCAGCAAUAUUACGUCCG,-3 ± 0.22,-0.37 ± 0.18
AUAAAGCAAUAUUACGACAC,-0.305 ± 0.11,-0.252 ± 0.13
AUCUAGCAAUAUUACGUCCU,-1.07 ± 0.078,0.137 ± 0.096
CCAGAGCAAUAUUACGCGUU,-4.06 ± 0.23,-2.65 ± 0.18
CGAUAGCAAUAUUACGUGUA,-2.23 ± 0.12,-2.15 ± 0.2
GAUUAGCAAUAUUACGUACG,-1.1 ± 0.13,0.136 ± 0.15
UUUCAGCAAUAUUACGGAGG,-1.53 ± 0.17,-0.401 ± 0.18
GUCAAGCAAUAUUACGGAUU,-2.73 ± 0.12,-1.12 ± 0.12
GCCUAGCAAUAUUACGUAAA,-1.1 ± 0.076,-0.594 ± 0.093
CCCGAGCAAUAUUACGUUUU,-4.01 ± 0.33,-2.01 ± 0.23
GAUCAGCAAUAUUACGGCAC,-0.826 ± 0.099,0.413 ± 0.17
UUCGAGCAAUAUUACGUCGG,-2.96 ± 0.28,-1.78 ± 0.29
GUUCAGCAAUAUUACGGAUG,-0.518 ± 0.081,0.107 ± 0.085
CCUAAGCAAUAUUACGGCAG,-2.09 ± 0.084,-1.21 ± 0.098
GGUAAGCAAUAUUACGCUCG,-0.274 ± 0.13,-0.892 ± 0.23
CACUAGCAAUAUUACGUGGC,-3.89 ± 0.23,-3.28 ± 0.2
UAUAAGCAAUAUUACGGCUU,-1.22 ± 0.12,-0.669 ± 0.16
CGUGAGCAAUAUUACGAACC,-1.44 ± 0.18,-0.0387 ± 0.24
CUGAAGCAAUAUUACGCUCC,-2.74 ± 0.34,
GAAAAGCAAUAUUACGGAUC,-1.04 ± 0.072,-0.773 ± 0.087
GUGUAGCAAUAUUACGCCGG,-2.93 ± 0.27,-2.16 ± 0.38
UCUAAGCAAUAUUACGUGAU,-4.27 ± 0.22,-2.69 ± 0.18
AUUAAGCAAUAUUACGCCGG,-0.824 ± 0.19,-0.226 ± 0.25
AGGUAGCAAUAUUACGCAGA,-2.681 ± 0.023,-1.59 ± 0.034

Sequence,self-splicing fitness (ln) (30 °C),self-splicing fitness (ln) (37 °C)
AAUCAGCAAUAUUACGUAGG,-1.61 ± 0.056,-0.958 ± 0.077
UUCCAGCAAUAUUACGCCAC,,-1.86 ± 0.34
AAAGAGCAAUAUUACGCCGA,-1.81 ± 0.29,-2.33 ± 0.34
GUUUAGCAAUAUUACGCCCU,-0.651 ± 0.098,-0.533 ± 0.11
AAGUAGCAAUAUUACGUCAG,-3.38 ± 0.19,-2.43 ± 0.18
CCAUAGCAAUAUUACGCGCU,-3.87 ± 0.27,-3.05 ± 0.4
UGGUAGCAAUAUUACGUGCA,-0.653 ± 0.11,-1.27 ± 0.1
GAUCAGCAAUAUUACGUCCG,-3.26 ± 0.26,-1.66 ± 0.22
CAUUAGCAAUAUUACGGUCC,,-1.72 ± 0.34
UCCGAGCAAUAUUACGAGCG,-3.16 ± 0.18,-2.47 ± 0.24
AAUGAGCAAUAUUACGCUCA,-1.91 ± 0.42,-0.648 ± 0.38
CAGGAGCAAUAUUACGGUUG,-1.89 ± 0.085,-0.54 ± 0.12
AUCCAGCAAUAUUACGAAUU,-1.43 ± 0.084,-1.04 ± 0.11
UCCUAGCAAUAUUACGCUUU,,-1.85 ± 0.29
AGCCAGCAAUAUUACGACCG,-3.83 ± 0.32,-1.89 ± 0.24
AAACAGCAAUAUUACGACUG,-1.64 ± 0.064,-0.795 ± 0.071
CAAAAGCAAUAUUACGGUGA,-1.57 ± 0.096,-1.62 ± 0.1
GUAUAGCAAUAUUACGACAU,-0.233 ± 0.014,0.0814 ± 0.033
AAGCAGCAAUAUUACGGUCU,-0.0787 ± 0.043,0.176 ± 0.063
GACCAGCAAUAUUACGCGGU,-4.81 ± 0.39,-3.27 ± 0.27
GCCAAGCAAUAUUACGUUCU,-2.45 ± 0.081,-1.53 ± 0.088
AUCAAGCAAUAUUACGUUGA,-2.52 ± 0.1,-1.8 ± 0.12
GACUAGCAAUAUUACGCCCC,-0.792 ± 0.23,-0.904 ± 0.27
UUGCAGCAAUAUUACGCCAG,-0.879 ± 0.13,0.0127 ± 0.2
UGGCAGCAAUAUUACGACGU,-1.84 ± 0.16,-0.565 ± 0.2

Sequence,self-splicing fitness (ln) (30 °C),self-splicing fitness (ln) (37 °C)
AAGGAGCAAUAUUACGCGUU,-2.22 ± 0.17,-2.15 ± 0.23
UGCUAGCAAUAUUACGGAGC,,-1.42 ± 0.41
CCACAGCAAUAUUACGAUUG,-1.3 ± 0.05,-0.453 ± 0.067
AGUGAGCAAUAUUACGAUUG,-3.59 ± 0.42,-2.77 ± 0.38
AUUCAGCAAUAUUACGCGCA,-0.00177 ± 0.12,-0.315 ± 0.12
ACGAAGCAAUAUUACGGCGG,-0.224 ± 0.089,0.0437 ± 0.13
ACGAAGCAAUAUUACGUGUA,-2.15 ± 0.058,-1.24 ± 0.058
AGACAGCAAUAUUACGCAUA,-2.73 ± 0.18,-1.23 ± 0.11
CUCAAGCAAUAUUACGGUGG,-2.01 ± 0.061,-1.1 ± 0.081
GGAAAGCAAUAUUACGCGAA,-1.66 ± 0.17,-1.19 ± 0.13
UGGAAGCAAUAUUACGUGAC,-2.76 ± 0.34,-1.75 ± 0.4
AUGAAGCAAUAUUACGCGCG,-0.094 ± 0.087,-0.808 ± 0.098
UGCAAGCAAUAUUACGGGGA,-3.21 ± 0.33,-1.32 ± 0.15
AGUGAGCAAUAUUACGCGAC,-1.74 ± 0.32,-1.46 ± 0.31
AUUCAGCAAUAUUACGAUAA,-0.72 ± 0.086,-0.295 ± 0.099
UCGGAGCAAUAUUACGACUG,-1.59 ± 0.31,0.217 ± 0.17
CCUGAGCAAUAUUACGUGCA,-3.09 ± 0.21,-1.53 ± 0.26
GAAAAGCAAUAUUACGUACC,-0.525 ± 0.092,-0.528 ± 0.14
AGUUAGCAAUAUUACGUCCC,-0.148 ± 0.21,-0.452 ± 0.2
CGCAAGCAAUAUUACGACCG,-1.4 ± 0.11,-0.441 ± 0.14
CGGGAGCAAUAUUACGGUGA,-2.3 ± 0.33,
UUAUAGCAAUAUUACGACUC,-1.94 ± 0.19,-1.94 ± 0.24
AGUGAGCAAUAUUACGUGGC,,-1.94 ± 0.33
GCCGAGCAAUAUUACGGGGC,-4.27 ± 0.39,-2.28 ± 0.27
